Substrate in data set [1]: CC=Cc1ccc(O)c(OC)c1
Description: purified protein. The class given is biochemical, Novosphingobium aromaticivorans. The conditions noted are these: apparent, 0.1 M Tris-HCl pH 9, room temperature.

Substrate in data set [2]: Oc1ccc(/C=C/c2cc(O)cc(O)c2)cc1
Description: purified protein. Format: biochemical, Novosphingobium aromaticivorans. The conditions noted are these: apparent, 0.1 M Tris-HCl pH 9, room temperature.

B1: NOV1 (Novosphingobium aromaticivorans DSM 12444) (protein)
chain: MAQFPNTPSFTGFNTPSRIEADIADLAHEGTIPQGLNGAFYRVQPDPQFPPRLDDDIAFNGDGMITRFHIHDGQVDFRQRWAKTDKWKLENAAGKALFGAYRNPLTDDEAVKGEIRSTANTNAFVFGGKLWAMKEDSPALVMDPATMETFGFEKFGGKMTGQTFTAHPKVDPKTGNMVAIGYAASGLCTDDVTYMEVSPEGELVREVWFKVPYYCMMHDFGITEDYLVLHIVPSIGSWERLEQGKPHFGFDTTMPVHLGIIPRRDGVRQEDIRWFTRDNCFASHVLNAWQEGTKIHFVTCEAKNNMFPFFPDVHGAPFNGMEAMSHPTDWVVDMASNGEDFAGIVKLSDTAAEFPRIDDRFTGQKTRHGWFLEMDMKRPVELRGGSAGGLLMNCLFHKDFETGREQHWWCGPVSSLQEPCFVPRAKDAPEGDGWIVQVCNRLEEQRSDLLIFDALDIEKGPVATVNIPIRLRFGLHGNWANADEIGLAEKVLAA
For orientation: Km means the substrate concentration at which the rate is half of its maximum. By kcat is commonly meant the number of substrate molecules converted per active site and unit of time at saturation. As a reminder, the kcat/Km is the second-order rate constant that governs catalysis at low substrate concentration. Turning to B1, in data set [1], the Km came out at 600 ± 100 µM, the kcat was 7.3 ± 0.2 s⁻¹ and the kcat/Km was found to be 12200 ± 2000 M⁻¹ s⁻¹. Moreover, in data set [2], the Km worked out at 60 ± 10 µM, the kcat turned out to be 0.38 ± 0.02 s⁻¹ and the kcat/Km amounted to 6300 ± 200 M⁻¹ s⁻¹.

B2: NOV1 (Novosphingobium aromaticivorans DSM 12444; S283F) (protein)
chain: MAQFPNTPSFTGFNTPSRIEADIADLAHEGTIPQGLNGAFYRVQPDPQFPPRLDDDIAFNGDGMITRFHIHDGQVDFRQRWAKTDKWKLENAAGKALFGAYRNPLTDDEAVKGEIRSTANTNAFVFGGKLWAMKEDSPALVMDPATMETFGFEKFGGKMTGQTFTAHPKVDPKTGNMVAIGYAASGLCTDDVTYMEVSPEGELVREVWFKVPYYCMMHDFGITEDYLVLHIVPSIGSWERLEQGKPHFGFDTTMPVHLGIIPRRDGVRQEDIRWFTRDNCFAFHVLNAWQEGTKIHFVTCEAKNNMFPFFPDVHGAPFNGMEAMSHPTDWVVDMASNGEDFAGIVKLSDTAAEFPRIDDRFTGQKTRHGWFLEMDMKRPVELRGGSAGGLLMNCLFHKDFETGREQHWWCGPVSSLQEPCFVPRAKDAPEGDGWIVQVCNRLEEQRSDLLIFDALDIEKGPVATVNIPIRLRFGLHGNWANADEIGLAEKVLAA
Take B2: in data set [1], the Km worked out at 800 ± 100 µM, the kcat is 14.5 ± 0.8 s⁻¹ and the kcat/Km is 18100 ± 4000 M⁻¹ s⁻¹. In data set [2], the Km was 227 ± 2 µM, the kcat was found to be 0.078 ± 0.004 s⁻¹ and the kcat/Km stood at 340 ± 20 M⁻¹ s⁻¹.

The values above are taken from PMC9851154.
